The values below are quoted from earlier work in article PMC3237005.

For data set [1], the target named is Lethal factor (LF) LFN (Bacillus anthracis) (UniProt P15917).
The target in data set [2] is Edema factor (EF) EFN (Bacillus anthracis) (UniProt P40136).

pKd: −log10 of the molar value.

On to “Protective antigen (PA63 heptamer) PA63 (from UniProt P13423)”, for which the negative-log Kd (pKd) in data set [1] and in data set [2] was 9.00 in each case.
